Results as given in patent publication US20220056104A1 (Janssen / Centocor, published 2022).
Changes are numbered by the printed parent chain. In names and notes the source's numbering stands. Blank lines part the entries; values can stand above or below the binder they belong to.

Tests used:
[1] = target: T1, DcR3 (UniProt O95407 30-300, limits assumed); assay: ELISA, DcR3
T1 construct: the construct is not described; also called decoy receptor DcR3; TNFRSF6B
T1 sequence (looked up): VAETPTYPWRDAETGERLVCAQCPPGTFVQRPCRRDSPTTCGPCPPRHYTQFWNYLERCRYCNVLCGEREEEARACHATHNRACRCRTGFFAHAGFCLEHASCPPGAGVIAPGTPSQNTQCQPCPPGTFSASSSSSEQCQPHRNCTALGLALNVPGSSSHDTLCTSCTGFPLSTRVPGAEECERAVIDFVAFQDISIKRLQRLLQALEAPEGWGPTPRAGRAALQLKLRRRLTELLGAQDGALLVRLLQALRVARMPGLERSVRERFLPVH

[2] = target: T2, Recombinant DR3-Fc (R&D Systems, cat. #943-D3) (UniProt Q93038 25-199, limits assumed); assay: ELISA, DR3-Fc immobilized
T2 construct: dimeric MW~92 kDa; also called DR3 receptor; Fc-DR3; not shown: Fc part of the bought fusion
T2 sequence (looked up): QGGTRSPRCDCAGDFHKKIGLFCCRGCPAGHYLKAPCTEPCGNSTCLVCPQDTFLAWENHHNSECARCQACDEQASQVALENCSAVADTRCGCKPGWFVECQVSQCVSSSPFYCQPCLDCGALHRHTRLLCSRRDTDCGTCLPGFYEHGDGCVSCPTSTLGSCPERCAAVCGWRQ
Experimental: All ELISA-based measurements were collected in triplicate, and error values report the standard error between measurements. Recombinant DR3-Fc (R&D Systems, cat. #943-D3), dimeric MW˜92 kDa, was non-specifically immobilized onto plates (Nunc maxisorp, cat. #436110) in 100 μL DR3-Fc, diluted to 10 μg/mL onto a 96-well White Maxisorp plate (Nunc, cat #436110) (O/N, 4° C.). Plates were block for 1 hour at room temperature with 250 μl/well of casein buffer and blocking buffer was removed. 50 μL of TL1A variants were diluted in StartingBlock PBS (Thermo Fisher Scientific), at 25 μg/mL, diluting 3× over each well, according to the plate map description for 20160623) per well on a 96-well White Maxisorp plate (Nunc, cat #: 436110) (overnight at 4° C.).
Plates were washed three times with TBST. 100 μl/well polyclonal rabbit anti-human TL1A-biotin antibody (diluted 1:1000 in Starting Block PBS) was added and plates were incubated for 1 hour at room temperature with shaking at 150 rpm. TL1A-biotin antibody was removed and 100 μl/well streptavidin-HRP conjugate (diluted 1:10,000 in Starting Block PBS) was added to plates. Plates were incubated for 1 hour at room temperature with shaking at 150 rpm. Plates were washed three times with TBST. 100 μl/well POD Chemiluminescence substrate (Roche, cat #: 11582950001) was added immediately prior to reading plate luminescence using a Molecular Devices M5 plate reader with a delay setting of 100 ms.
Variants of TL1A were generated and tested for binding to DR3 and DcR3 by ELISA as described.

- EC50 [1]: 10.6 nM
- Rel EC50 [1]: 2.3 ratio (head: nM)
- EC50 [2]: 25.8 nM
- Rel EC50 [2]: 1 ratio (head: nM)
B1: TL1W82 (His-TEV-TL1A K111E) (ligand)
chain: HHHHHHENLYFQGLKGQEFAPSHQQVYAPLRADGDKPRAHLTVVRQTPTQHFENQFPALHWEHELGLAFTKNRMNYTNKFLLIPESGDYFIYSQVTFRGMTSECSEIRQAGRPNKPDSITVVITKVTDSYPEPTQLLMGTKSVCEVGSNWFQPIYLGAMFSLQEGDKLMVNVSDISLVDYTKEDKTFFGAFLL
notes: also called TL1W82 (K111E)

- EC50 [1]: 15.4 nM
- Rel EC50 [1]: 3.4 ratio (head: nM)
- EC50 [2]: 110 nM
- Rel EC50 [2]: 4.2 ratio (head: nM)
B2: TL1W124 (His-TEV-TL1A N207K) (ligand)
chain: B1 chain with E53K, N149K
notes: also called TL1W124 (N207K)

- EC50 [1]: 15 nM
- Rel EC50 [1]: 3.3 ratio (head: nM)
- EC50 [2]: 324 nM
- Rel EC50 [2]: 12.4 ratio (head: nM)
B3: TL1W100 (His-TEV-TL1A S176L) (ligand)
chain: B1 chain with E53K, S118L
notes: also called TL1W100 (S176L)

- EC50 [1]: 23.3 nM
- Rel EC50 [1]: 5.1 ratio (head: nM)
- EC50 [2]: 77 nM
- Rel EC50 [2]: 2.9 ratio (head: nM)
B4: TL1W116 (His-TEV-TL1A T192K) (ligand)
chain: B1 chain with E53K, T134K
notes: also called TL1W116 (T192K)

- EC50 [1]: 16.7 nM
- Rel EC50 [1]: 3.6 ratio (head: nM)
- EC50 [2]: 44.2 nM
- Rel EC50 [2]: 1.7 ratio (head: nM)
B5: TL1W111 (His-TEV-TL1A S187D) (ligand)
chain: B1 chain with E53K, S129D
notes: also called TL1W111 (S187D)

- EC50 [1]: 6.2 nM
- Rel EC50 [1]: 1.4 ratio (head: nM)
- EC50 [2]: 63.8 nM
- Rel EC50 [2]: 2.4 ratio (head: nM)
B6: TL1W107 (His-TEV-TL1A D186Y) (ligand)
chain: B1 chain with E53K, D128Y
notes: also called TL1W107 (D186Y)

- EC50 [1]: 6.7 nM
- Rel EC50 [1]: 1.5 ratio (head: nM)
- EC50 [2]: 131 nM
- Rel EC50 [2]: 5 ratio (head: nM)
B7: TL1W97 (His-TEV-TL1A K173S) (ligand)
chain: B1 chain with E53K, K115S
notes: also called TL1W97 (K173S)

- EC50 [1]: 8.1 nM
- Rel EC50 [1]: 1.8 ratio (head: nM)
- EC50 [2]: 87.5 nM
- Rel EC50 [2]: 3.3 ratio (head: nM)
B8: TL1W119 (His-TEV-TL1A S206F) (ligand)
chain: B1 chain with E53K, S148F
notes: also called TL1W119 (S206F)

- EC50 [1]: 11.5 nM
- Rel EC50 [1]: 2.5 ratio (head: nM)
- EC50 [2]: 34.8 nM
- Rel EC50 [2]: 1.3 ratio (head: nM)
B9: TL1W99 (His-TEV-TL1A S176A) (ligand)
chain: B1 chain with E53K, S118A
notes: also called TL1W99 (S176A)

- EC50 [1]: 19.3 nM
- Rel EC50 [1]: 4.2 ratio (head: nM)
- EC50 [2]: 49.4 nM
- Rel EC50 [2]: 1.9 ratio (head: nM)
B10: TL1W104 (His-TEV-TL1A T185L) (ligand)
chain: B1 chain with E53K, T127L
notes: also called TL1W104 (T185L)

- EC50 [1]: 10 nM
- Rel EC50 [1]: 2.2 ratio (head: nM)
- EC50 [2]: 23.3 nM
- Rel EC50 [2]: 0.9 ratio (head: nM)
B11: TL1W114 (His-TEV-TL1A T192A) (ligand)
chain: B1 chain with E53K, T134A
notes: also called TL1W114 (T192A)

- EC50 [1]: 27.8 nM
- Rel EC50 [1]: 6 ratio (head: nM)
- EC50 [2]: 2050 nM
- Rel EC50 [2]: 78.4 ratio (head: nM)
B12: TL1W98 (His-TEV-TL1A K173R) (ligand)
chain: B1 chain with E53K, K115R
notes: also called TL1W98 (K173R)

- EC50 [1]: 11.5 nM
- Rel EC50 [1]: 2.5 ratio (head: nM)
- EC50 [2]: 57.9 nM
- Rel EC50 [2]: 2.2 ratio (head: nM)
B13: TL1W103 (His-TEV-TL1A T185A) (ligand)
chain: B1 chain with E53K, T127A
notes: also called TL1W103 (T185A)

- EC50 [1]: 57.1 nM
- Rel EC50 [1]: 12.4 ratio (head: nM)
- EC50 [2]: 296 nM
- Rel EC50 [2]: 11.3 ratio (head: nM)
B14: TL1W85 (His-TEV-TL1A G124S) (ligand)
chain: B1 chain with E53K, G66S
notes: also called TL1W85 (G124S)

- EC50 [1]: 13.7 nM
- Rel EC50 [1]: 3 ratio (head: nM)
- EC50 [2]: 56.8 nM
- Rel EC50 [2]: 2.2 ratio (head: nM)
B15: TL1W126 (His-TEV-TL1A F209W) (ligand)
chain: B1 chain with E53K, F151W
notes: also called TL1W126 (F209W)

- EC50 [1]: 29.2 nM
- Rel EC50 [1]: 6.3 ratio (head: nM)
- EC50 [2]: 182 nM
- Rel EC50 [2]: 6.9 ratio (head: nM)
B16: TL1W102 (His-TEV-TL1A S176K) (ligand)
chain: B1 chain with E53K, S118K
notes: also called TL1W102 (S176K)
